Source: the supplement of paper PMC9112550, “Optimization of the antimicrobial peptide Bac7 by deep mutational scanning” (BMC Biology, 2022)

Tested on: Escherichia coli TOP10
Experiment: shrunken log2 fold change of peptide-encoding DNA abundance (4.5 h post-induction vs induction); higher = less antimicrobial activity (less host growth inhibition)
Details: time post-induction: 4.5 h; library: site-saturation at positions 5, 18, 19, 20
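Also: peptides expressed intracellularly from a pBAD plasmid library in pooled LB shake-flask culture, induced with 0.3% L-arabinose, DNA abundance read by NGS, three biological replicates, DESeq2 with apeglm shrinkage.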

| Sequence | shrunken log2 fold change |
| --- | --- |
| RRIRKRPPRLPRPRPRPIGSPRP | -0.0113 |
| RRIRFRPPRLPRPRPRPLYKPRP | -0.813 |
| RRIRMRPPRLPRPRPRPPKNPRP | 1.18 |
| RRIRDRPPRLPRPRPRPNVVPRP | -0.0354 |
| RRIRWRPPRLPRPRPRPCHLPRP | -0.211 |
| RRIRSRPPRLPRPRPRPTSIPRP | -0.102 |
| RRIRRRPPRLPRPRPRPAGIPRP | 0.352 |
| RRIRYRPPRLPRPRPRPVCEPRP | 0.0427 |
| RRIRSRPPRLPRPRPRPWLGPRP | -0.092 |
| RRIRTRPPRLPRPRPRPFYNPRP | -0.755 |
| RRIRVRPPRLPRPRPRPTCNPRP | -0.233 |
| RRIRCRPPRLPRPRPRPASLPRP | -0.234 |
| RRIRVRPPRLPRPRPRPFQYPRP | -0.453 |
| RRIRIRPPRLPRPRPRPLDLPRP | -0.415 |
| RRIRDRPPRLPRPRPRPVPAPRP | 0.341 |
| RRIRYRPPRLPRPRPRPFKHPRP | -0.349 |
| RRIRSRPPRLPRPRPRPINVPRP | -0.418 |
| RRIRMRPPRLPRPRPRPQHIPRP | -0.103 |
| RRIRRRPPRLPRPRPRPYYKPRP | -0.677 |
| RRIRHRPPRLPRPRPRPNHIPRP | -0.844 |
| RRIRVRPPRLPRPRPRPEHHPRP | -0.334 |
| RRIRTRPPRLPRPRPRPIFGPRP | -0.0261 |
| RRIRARPPRLPRPRPRPDRIPRP | -0.00136 |
| RRIRDRPPRLPRPRPRPHDHPRP | 0.00042 |
| RRIRLRPPRLPRPRPRPVCQPRP | 0.155 |

| Sequence | shrunken log2 fold change |
| --- | --- |
| RRIRMRPPRLPRPRPRPYVIPRP | -0.125 |
| RRIRSRPPRLPRPRPRPRSWPRP | 0.0511 |
| RRIRGRPPRLPRPRPRPKCGPRP | 0.814 |
| RRIRARPPRLPRPRPRPHTHPRP | -0.175 |
| RRIRQRPPRLPRPRPRPDADPRP | -0.0253 |
| RRIRQRPPRLPRPRPRPRGMPRP | 0.143 |
| RRIRIRPPRLPRPRPRPPCKPRP | -0.422 |
| RRIRPRPPRLPRPRPRPYIFPRP | -0.984 |
| RRIRIRPPRLPRPRPRPKTMPRP | -0.198 |
| RRIRHRPPRLPRPRPRPPNIPRP | -0.157 |
| RRIRTRPPRLPRPRPRPYLQPRP | -0.525 |
| RRIRNRPPRLPRPRPRPLCCPRP | -0.371 |
| RRIRFRPPRLPRPRPRPQIEPRP | -0.24 |
| RRIRERPPRLPRPRPRPMQFPRP | -0.248 |
| RRIRWRPPRLPRPRPRPTPAPRP | 0.584 |
| RRIRIRPPRLPRPRPRPYRGPRP | -0.155 |
| RRIRLRPPRLPRPRPRPKTYPRP | -0.511 |
| RRIRARPPRLPRPRPRPGMIPRP | 0.237 |
| RRIRDRPPRLPRPRPRPPMTPRP | 0.425 |
| RRIRIRPPRLPRPRPRPRNIPRP | -0.00545 |
| RRIRNRPPRLPRPRPRPLEFPRP | -0.109 |
| RRIRARPPRLPRPRPRPLSNPRP | 0.25 |
| RRIRDRPPRLPRPRPRPWCMPRP | -1 |
| RRIRIRPPRLPRPRPRPQQEPRP | -0.056 |
| RRIRWRPPRLPRPRPRPDNQPRP | -0.265 |

| Sequence | shrunken log2 fold change |
| --- | --- |
| RRIRNRPPRLPRPRPRPTFCPRP | -0.379 |
| RRIRWRPPRLPRPRPRPFREPRP | -0.105 |
| RRIRLRPPRLPRPRPRPSEAPRP | 0.12 |
| RRIRSRPPRLPRPRPRPGHPPRP | 0.0456 |
| RRIRKRPPRLPRPRPRPDTIPRP | 0.163 |
| RRIRARPPRLPRPRPRPHIRPRP | -0.0962 |
| RRIRQRPPRLPRPRPRPYTIPRP | -0.0485 |
| RRIRDRPPRLPRPRPRPGMVPRP | 0.548 |
| RRIRQRPPRLPRPRPRPTTWPRP | -0.0695 |
| RRIRKRPPRLPRPRPRPVHTPRP | 0.00666 |
| RRIRHRPPRLPRPRPRPIFWPRP | -0.0136 |
| RRIRRRPPRLPRPRPRPFWKPRP | 0.111 |
| RRIRYRPPRLPRPRPRPVNSPRP | -0.0185 |
| RRIRERPPRLPRPRPRPGSPPRP | -0.0668 |
| RRIRRRPPRLPRPRPRPLQIPRP | 0.0422 |
| RRIRERPPRLPRPRPRPQHNPRP | -0.771 |
| RRIRYRPPRLPRPRPRPTWPPRP | 0.183 |
| RRIRFRPPRLPRPRPRPKFPPRP | -0.0265 |
| RRIRPRPPRLPRPRPRPQSWPRP | -0.134 |
| RRIRNRPPRLPRPRPRPEGSPRP | -0.0385 |
| RRIRVRPPRLPRPRPRPWRRPRP | 0.208 |
| RRIRNRPPRLPRPRPRPFIEPRP | -0.412 |
| RRIRSRPPRLPRPRPRPPDGPRP | 0.447 |
| RRIRNRPPRLPRPRPRPDTTPRP | -0.129 |
| RRIRYRPPRLPRPRPRPFVCPRP | -0.0345 |
